According to publication doi:10.1101/2022.11.09.514853 (bioRxiv, 2022):

Biological target: the molecule itself
Assay: cryo-EM structure

B1: human GluN2D, C-terminal domain truncated (M1-P879), Strep-tag II (receptor, UniProt O15399 28-879, looked up)
chain: FPEEAPGPGGAGGPGGGLGGARPLNVALVFSGPAYAAEAARLGPAVAAAVRSPGLDVRPVALVLNGSDPRSLVLQLCDLLSGLRVHGVVFEDDSRAPAVAPILDFLSAQTSLPIVAVHGGAALVLTPKEKGSTFLQLGSSTEQQLQVIFEVLEEYDWTSFVAVTTRAPGHRAFLSYIEVLTDGSLVGWEHRGALTLDPGAGEAVLSAQLRSVSAQIRLLFCAREEAEPVFRAAEEAGLTGSGYVWFMVGPQLAGGGGSGAPGEPPLLPGGAPLPAGLFAVRSAGWRDDLARRVAAGVAVVARGAQALLRDYGFLPELGHDCRAQNRTHRGESLHRYFMNITWDNRDYSFNEDGFLVNPSLVVISLTRDRTWEVVGSWEQQTLRLKYPLWSRYGRFLQPVDDTQHLTVATLEERPFVIVEPADPISGTCIRDSVPCRSQLNRTHSPPPDAPRPEKRCCKGFCIDILKRLAHTIGFSYDLYLVTNGKHGKKIDGVWNGMIGEVFYQRADMAIGSLTINEERSEIVDFSVPFVETGISVMVARSNGTVSPSAFLEPYSPAVWVMMFVMCLTVVAVTVFIFEYLSPVGYNRSLATGKRPGGSTFTIGKSIWLLWALVFNNSVPVENPRGTTSKIMVLVWAFFAVIFLASYTANLAAFMIQEEYVDTVSGLSDRKFQRPQEQYPPLKFGTVPNGSTEKNIRSNYPDMHSYMVRYNQPRVEEALTQLKAGKLDAFIYDAAVLNYMARKDEGCKLVTIGSGKVFATTGYGIALHKGSRWKRPIDLALLQFLGDDEIEMLERLWLSGICHNDKIEVMSSKLDIDNMAGVFYMLLVAMGLSLLVFAWEHLVYWRLRHCLGP
B1: binds.
